B1: PSA-Aptamer (ssDNA)
DNA: ATTAAAGCTCGCCATCAAATAGC
B2: random single strand DNA (ssDNA)
DNA: TTTTGCCATCGGGGCCATGTTCAA

Key:
[1] = target: T1, Prostate specific antigen (PSA) (UniProt P07288 25-261); assay: electrochemical impedance spectroscopy, CV and DPV (immobilized aptamer); 5 mM [Fe(CN)6]3-/4-; also EIS without redox probe; LOD 0.14 ng/mL; 0.1 M PBS pH 7.4, with or without 5 mM [Fe(CN)6]3-/4-; PSA 0-11.06 ng/mL; temperature not stated; conditions: protein: commercial
[2] = target: T1, Prostate specific antigen (PSA); assay: electrochemical impedance spectroscopy (immobilized DNA); Rct unchanged with PSA; 0.1 M PBS pH 7.4, with or without 5 mM [Fe(CN)6]3-/4-; PSA 0-11.06 ng/mL; temperature not stated; conditions: protein: commercial

T1 sequence (P07288 25-261): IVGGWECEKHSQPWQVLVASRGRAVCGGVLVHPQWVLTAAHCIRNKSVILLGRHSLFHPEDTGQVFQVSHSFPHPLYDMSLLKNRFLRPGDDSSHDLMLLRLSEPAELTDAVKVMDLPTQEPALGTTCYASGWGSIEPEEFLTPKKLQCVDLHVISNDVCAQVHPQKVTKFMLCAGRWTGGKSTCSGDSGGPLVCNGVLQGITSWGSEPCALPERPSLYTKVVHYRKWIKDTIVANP

Binder	binding result [1]	binding result [2]
B1	binds	
B2		no binding

— paper PMC5792442, “A comparative Study of Aptasensor Vs Immunosensor for Label-Free PSA Cancer Detection on GQDs-AuNRs Modified Screen-Printed Electrodes”
